Key:
[1] = target: T1, Orexin receptor-1 (human OX1R, wild type) stably expressed in CHO-S cells (human, UniProt O43613 1-425); test: cell-based or functional assay
T1 sequence: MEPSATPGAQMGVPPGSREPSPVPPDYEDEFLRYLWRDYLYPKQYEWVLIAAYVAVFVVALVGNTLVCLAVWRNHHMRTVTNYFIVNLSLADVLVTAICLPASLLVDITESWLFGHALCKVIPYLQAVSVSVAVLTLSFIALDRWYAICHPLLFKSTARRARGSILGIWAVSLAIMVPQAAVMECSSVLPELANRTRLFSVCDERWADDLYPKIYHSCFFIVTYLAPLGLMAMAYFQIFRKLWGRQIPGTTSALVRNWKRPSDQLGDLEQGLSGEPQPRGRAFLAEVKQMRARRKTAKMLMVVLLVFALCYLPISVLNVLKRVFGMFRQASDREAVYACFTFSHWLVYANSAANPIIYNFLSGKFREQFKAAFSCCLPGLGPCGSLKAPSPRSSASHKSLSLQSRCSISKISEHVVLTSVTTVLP

[2] = target: T1, Orexin receptor-1 (human OX1R, wild …); test: competitive inhibition of 125I-OxA binding on CHO-S cells expressing human OX1R
Procedure: CHO—S cells expressing recombinant native or mutated OX1R were grown as previously described (El Firar et al., 2009) and maintained at 37° C. in a humidified 5% CO₂/air incubator. ¹²⁵I-orexia-A (74 TBq/mmol) was prepared as previously described (El Firar et al., 2009). […] Free peptides were removed by 2 cell washing cycles with PBS. […] Data were analyzed using the GraphPad software (http://www.graphpad.com).

B1: OxB 7-28 (peptide)
peptide: LQGRLQRLLQASGNHAAGILTM
notes: synthetic deletion mutant of OxB; also called deletion of the first six residues of OxB
B1 was tested, and the “Apoptosis induction EC50” value [1] was 2.18 µM, the “IP3 production EC50” value [1] was 1.51 µM and the IC50 [2] was 0.388 µM.

From US20180044393A1 (INSERM INSTITUT NATIONAL DE LA SANT ET DE LA RECHERCHE M …, published 2018)
